The values that follow come from patent EP4631972A1, “SITE-SPECIFIC COUPLED PEGYLATED INTERLEUKIN-2 MUTANT WITH RECEPTOR AFFINITY PREFERENCE AND USE THEREOF” (priority 2022, dated 2024).

For this experiment, the target named is T1, IL-2αβγ triple receptor (Homo sapiens, UniProt P01589+P14784+P31785).
T1 construct: Uniprot P01589 1Met-551Ile constructed into plasmid pcDNA3.1/zeo; Uniprot P14784 1Met-551Val constructed into plasmid pcDNA3.1(+); Uniprot P31785 1Met-551Thr was constructed into plasmid pcDNA3.1/zeo; expressed in transfected cells; host or cells: 293EC18 cells, transient co-transfection with pCMV/JAK3 and PGL4.52/STAT5RE
T1 sequence (P01589 22-272): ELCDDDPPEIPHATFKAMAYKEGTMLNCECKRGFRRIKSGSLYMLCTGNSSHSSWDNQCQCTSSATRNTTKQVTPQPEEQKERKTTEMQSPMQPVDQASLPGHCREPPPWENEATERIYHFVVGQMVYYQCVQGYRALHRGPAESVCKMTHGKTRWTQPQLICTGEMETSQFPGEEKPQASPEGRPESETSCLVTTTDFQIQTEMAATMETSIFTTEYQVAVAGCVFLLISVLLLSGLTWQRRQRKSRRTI
T1 sequence (P14784 27-551): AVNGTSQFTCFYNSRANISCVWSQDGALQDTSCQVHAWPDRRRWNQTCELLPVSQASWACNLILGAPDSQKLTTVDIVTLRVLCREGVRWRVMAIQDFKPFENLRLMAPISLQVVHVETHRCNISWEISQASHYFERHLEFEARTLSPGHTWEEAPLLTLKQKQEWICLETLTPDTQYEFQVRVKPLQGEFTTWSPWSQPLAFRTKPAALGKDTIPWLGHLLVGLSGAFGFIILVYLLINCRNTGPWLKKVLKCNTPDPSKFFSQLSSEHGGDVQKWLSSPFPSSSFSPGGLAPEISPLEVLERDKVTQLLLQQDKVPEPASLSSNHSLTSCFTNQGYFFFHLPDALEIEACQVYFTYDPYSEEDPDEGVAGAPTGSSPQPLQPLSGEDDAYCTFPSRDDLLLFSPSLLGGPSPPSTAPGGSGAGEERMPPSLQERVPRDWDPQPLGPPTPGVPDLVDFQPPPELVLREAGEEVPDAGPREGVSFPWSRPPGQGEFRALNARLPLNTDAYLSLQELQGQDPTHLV
T1 sequence (P31785 23-369): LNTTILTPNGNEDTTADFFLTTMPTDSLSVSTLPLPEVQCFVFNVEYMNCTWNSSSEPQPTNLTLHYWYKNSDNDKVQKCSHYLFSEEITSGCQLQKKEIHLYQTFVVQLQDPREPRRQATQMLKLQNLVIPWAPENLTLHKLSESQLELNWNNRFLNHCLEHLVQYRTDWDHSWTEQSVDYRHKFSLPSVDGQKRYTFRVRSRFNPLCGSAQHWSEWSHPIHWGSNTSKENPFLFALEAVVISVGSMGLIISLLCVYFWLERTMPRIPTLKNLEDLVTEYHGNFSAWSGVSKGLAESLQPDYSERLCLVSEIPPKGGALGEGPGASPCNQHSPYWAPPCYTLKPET
The experiment can be described thus: STAT5 reporter gene assay, activation of IL-2αβγ triple receptor in 293EC18/αβγ/JAK3/STAT5 cells. As to conditions: Example 4, Figure 6, 80k PEG. Format: cell-based. The method, then: Since the binding of IL-2 to the β and γ subunits of its receptor induces STAT5 phosphorylation, which subsequently leads to dimerization and translocation into the nucleus to promote target gene transcription, this example evaluates the ability of the mutant IL-2 polypeptides to induce signaling through the IL-2 receptor by measuring STAT5 phosphorylation.
Adherent 293EC18 cells were cultured to about 90% confluence using conventional methods. After trypsin digestion, the cells were resuspended in cell culture medium to 4×10^5 cells/ml and 50 µl/well were added to two 96-well cell culture plates. After incubation at 37°C for 48 h, the supernatant was aspirated and fresh culture medium was added. […]
Each IL2 mutant was diluted 4-fold in a gradient manner using PBS buffer, with a total of 11 dilutions and a starting concentration of 65.2 nM. […] Bio-Lite Luciferase Assay System reagents that have been mixed and equilibrated to room temperature were added to the cell culture plates to be tested at 100 µl/well, placed on a microplate shaker at 450 rpm to mix for 2 minutes, then allowed to stand at room temperature for 3 minutes, and the chemiluminescence value was detected with an enzyme plate reader.
The logarithm of the final concentration of each IL-2 mutant sample was used as the X-axis, and the chemiluminescence detection results were used as the Y-axis for plotting. Data were analyzed using the four-parameter logistic regression model in GraphPad Prism 9. Table 2 EC50 values for the activation of the IL-2αβγ triple receptor by PEG-IL-2 mutants as determined by a reporter gene assay.
According to the method of Example 3, each polyethylene glycol-modified mutant obtained in this example was assessed for the binding preference to the IL2 receptors by a reporter assay. Table 4 EC50 values for the activation of the IL-2αβγ triple receptor by PEG-IL-2 mutants as determined by a reporter gene assay. […]

B1: 80K-1PEG-IL2-N88R-N77C: IL-2 mutant N88R, N77C, conjugation site 77, PEG molecular weight 80kD (conjugate)
chain: APTSSSTKKTQLQLEHLLLDLQMILNGINNYKNPKLTRMLTFKFYMPKKATELKHLQCLEEELKPLEEVLNLAQSKC(PEG 80 kDa)FHLRPRDLISRINVIVLELKGSETTFMCEYADETATIVEFLNRWITFSQSIISTLT
For B1, the “activation activity on the IL-2Rαβγ triple receptor compared with 80K-1PEG-IL2-N88R-D109C” value is recorded as “slightly higher activation activity”.
